From US20260125472A1 (HEFEI TG IMMUNOPHARMA, published 2026) come the findings set out here.

One may read the EC50 (read off the curve) as the concentration needed to bring the measured effect to its halfway point.

The target in experiment [1] is T1, PDL1 on A-375 melanoma cells, HCT-15 colorectal cancer cells and A549 lung cancer cells (UniProt Q9NZQ7 19-290, limits assumed).
T1 construct: whole, on cells
Nature of the experiment: flow cytometry, A549 cells, MFI [panel B]. The method, boiled down: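 Cells were blocked with goat serum at 4° C for 30 min, then incubated with serially diluted bispecific antibodies or hIgG1LALA control at 4° C for 30 min. Bound antibody was detected with Alexa-647 anti-human IgG (4° C, 30 min, dark) and read by flow cytometry.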
(A flow cytometer gives signals particle by particle.)

In experiment [2] the target is T1, PDL1 on A-375 melanoma cells, HCT-15 …. The experiment in a line: flow cytometry, HCT-15 cells, binding ratio % [panel A]. As to the method: (2) The tumor cells were diluted to 2×10⁶/ml with PBS and added to a 1.5 ml EP tube at a volume of 100 μl/tube, and goat serum was added thereto at 10 μl/tube. The cells were blocked at 4° C. for 30 min. The serially diluted bispecific antibodies, Cross3×Trop2, Cross303×Trop2, Cross307×Trop2, Cross308×Trop2, Cross309×Trop2, Cross310×Trop2, Cross311×Trop2, Cross312×Trop2, Cross313×Trop2, Cross314×Trop2, Cross316×Trop2, Cross317×Trop2, Cross318×Trop2, Cross323×Trop2, Cross325×Trop2, Cross326×Trop2, and Cross3×PDL1, Cross303×PDL1, Cross307×PDL1, Cross308×PDL1, Cross309×PDL1, Cross310×PDL1, Cross311×PDL1, Cross312×PDL1, Cross313×PDL1, Cross314×PDL1, Cross316×PDL1, Cross317×PDL1, Cross318×PDL1, Cross323×PDL1, Cross325×PDL1, Cross326×PDL1, and control hIgG1LALA (purchased from Bio-Tech) were added and incubated at 4° C. for 30 min. 1 ml of PBS was added to the EP tube, followed by centrifugation at 3500 rpm for 5 min at 4° C. The supernatant was discarded, and the cells were washed again with PBS. After centrifugation, the supernatant was completely discarded, and the cells were resuspended with PBS at 100 μl/tube. Alexa-647-labeled goat anti-human IgG secondary antibody (purchased from Jackson lab) was added at 1 μl/tube and incubated at 4° C. in the dark for 30 min. The cells were washed twice with PBS, and the supernatant was completely discarded after centrifugation. […]

For experiment [3], the target named is T2, PDL1 protein (UniProt Q9NZQ7 19-238).
T2 construct: Bought recombinant protein
T2 sequence (Q9NZQ7 19-238 limits assumed): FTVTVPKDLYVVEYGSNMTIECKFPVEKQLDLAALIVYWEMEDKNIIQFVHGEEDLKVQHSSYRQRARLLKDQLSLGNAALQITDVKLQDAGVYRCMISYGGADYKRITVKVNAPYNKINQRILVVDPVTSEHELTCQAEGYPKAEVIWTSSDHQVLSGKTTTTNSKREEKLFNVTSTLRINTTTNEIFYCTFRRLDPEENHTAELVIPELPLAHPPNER
The experiment in a line: ELISA, coated PDL1 protein, OD450 [panel A]. The procedure, abridged: (§1)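 PDL1 protein coated at 2 μg/ml overnight at 4 °C, blocked with PBS/10% BSA; serially diluted bispecific antibodies or control IgG1LALA bound 1 h at 37 °C. Detection with HRP anti-human Fab secondary antibody and TMB for 3 min, stopped with sulfuric acid, absorbance at 450 nm.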
Background: An ELISA detects its analyte on a solid surface through an enzyme-linked reagent.

In experiment [4] the target is T1, PDL1 on A-375 melanoma cells, HCT-15 …. The experiment in a line: flow cytometry, A-375 cells, binding ratio % [panel A]. As to the method:
(§2) (2) The tumor cells were diluted to 2×10⁶/ml with PBS and added to a 1.5 ml EP tube at a volume of 100 μl/tube, and goat serum was added thereto at 10 μl/tube. The cells were blocked at 4° C. for 30 min. The serially diluted bispecific antibodies, Cross3×Trop2, Cross303×Trop2, Cross307×Trop2, Cross308×Trop2, Cross309×Trop2, Cross310×Trop2, Cross311×Trop2, Cross312×Trop2, Cross313×Trop2, Cross314×Trop2, Cross316×Trop2, Cross317×Trop2, Cross318×Trop2, Cross323×Trop2, Cross325×Trop2, Cross326×Trop2, and Cross3×PDL1, Cross303×PDL1, Cross307×PDL1, Cross308×PDL1, Cross309×PDL1, Cross310×PDL1, Cross311×PDL1, Cross312×PDL1, Cross313×PDL1, Cross314×PDL1, Cross316×PDL1, Cross317×PDL1, Cross318×PDL1, Cross323×PDL1, Cross325×PDL1, Cross326×PDL1, and control hIgG1LALA (purchased from Bio-Tech) were added and incubated at 4° C. for 30 min. 1 ml of PBS was added to the EP tube, followed by centrifugation at 3500 rpm for 5 min at 4° C. The supernatant was discarded, and the cells were washed again with PBS. After centrifugation, the supernatant was completely discarded, and the cells were resuspended with PBS at 100 μl/tube. Alexa-647-labeled goat anti-human IgG secondary antibody (purchased from Jackson lab) was added at 1 μl/tube and incubated at 4° C. in the dark for 30 min. The cells were washed twice with PBS, and the supernatant was completely discarded after centrifugation. The cells were resuspended with PBS at 200 μl/tube and assay was performed using the flow cytometry.

Experiment [5] has as its target T2, PDL1 protein. Nature of the experiment: ELISA, coated PDL1 protein, OD450 [panel B]. The procedure, abridged:
as §1

The target in a further experiment is T3, CD3E&D protein (UniProt P04234 22-105).
T3 construct: Purchased from Acro; also called CD3 E&D antigens; CD3E&D antigen protein
T3 sequence (chain, as listed by the source limits assumed, chain 1 of 2): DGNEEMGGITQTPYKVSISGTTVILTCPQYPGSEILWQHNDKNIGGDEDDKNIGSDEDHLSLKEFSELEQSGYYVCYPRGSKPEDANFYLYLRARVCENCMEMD
T3 sequence (P04234 22-105 limits assumed, chain 2 of 2): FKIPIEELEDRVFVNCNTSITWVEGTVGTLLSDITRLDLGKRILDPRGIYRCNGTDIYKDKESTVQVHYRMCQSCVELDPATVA
Nature of the experiment: ELISA, coated CD3E&D protein, OD450. The text has this:
(§3) In this example, the binding properties of the CD3×Trop2 and CD3×PDL1 bispecific antibody (the production method and the amino acid sequences of the heavy and light chains were shown in Example 1) were detected by using ELISA. The CD3E&D, Trop2, or PDL1 protein was coated onto 96-well plates by inventors, and the strength of the signal after the addition of the antibody was used to determine the binding properties of the antibody and the corresponding protein.
(1) CD3E&D protein (purchased from Acro) was diluted to 2 μg/ml with PBS buffer, added to a 96-well plate at a volume of 100 μL/well, and placed at 4° C. overnight. The PBS buffer in the 96-well plate was aspirated, and the plate was washed 6 times with PBST (pH 7.2 PBS containing 0.1% Tween 20) buffer. Then, 200 μL/well PBS/10% BSA was added and incubated at 37° C. for 2 h for blocking. The blocking solution was removed, and the plate was washed 6 times with PBST. […] The absorbance was read at 450 nm using a microplate reader.

The target in experiment [6] is T4, Trop2 on A-375-Trop2 melanoma cells (UniProt P09758 27-323, limits assumed).
T4 construct: whole, on cells
T4 sequence (looked up): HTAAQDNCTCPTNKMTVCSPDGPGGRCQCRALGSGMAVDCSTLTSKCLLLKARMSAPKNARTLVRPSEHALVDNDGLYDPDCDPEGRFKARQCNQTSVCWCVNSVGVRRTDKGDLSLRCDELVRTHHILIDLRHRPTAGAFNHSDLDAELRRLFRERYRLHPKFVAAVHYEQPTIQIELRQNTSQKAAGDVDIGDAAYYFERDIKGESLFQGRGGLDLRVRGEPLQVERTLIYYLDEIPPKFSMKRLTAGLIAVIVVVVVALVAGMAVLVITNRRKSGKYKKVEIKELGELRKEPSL
The experiment in a line: flow cytometry, A-375-Trop2 cells, MFI [panel B]. As to the method: as §2

The target of the next experiment is T5, Trop2 protein (UniProt P09758 27-274).
T5 construct: Bought recombinant protein; also called Trop2-Biotin protein (biotin-labelled, bridging ELISA)
T5 sequence (looked up): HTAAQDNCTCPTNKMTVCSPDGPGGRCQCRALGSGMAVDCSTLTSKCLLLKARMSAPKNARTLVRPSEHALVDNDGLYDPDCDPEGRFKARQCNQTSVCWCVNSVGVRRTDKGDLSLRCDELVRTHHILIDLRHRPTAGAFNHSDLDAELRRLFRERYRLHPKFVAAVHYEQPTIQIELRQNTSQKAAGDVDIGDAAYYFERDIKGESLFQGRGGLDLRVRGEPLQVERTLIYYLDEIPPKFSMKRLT
The experiment in a line: ELISA, coated Trop2 protein, OD450.
Text: as §3
(2) Trop2 protein (purchased from Acro) was diluted to 2 μg/ml with PBS buffer, added to a 96-well plate at a volume of 100 μL/well, and placed at 4° C. overnight. The PBS buffer in the 96-well plate was aspirated, and the plate was washed 6 times with PBST (pH 7.2 PBS containing 0.1% Tween 20) buffer. Then, 200 μL/well PBS/10% BSA was added and incubated at 37° C. for 2 h for blocking. The blocking solution was removed, and the plate was washed six times with PBST. Then, the to-be-tested bispecific antibodies, Cross3×Trop2, Cross303×Trop2, Cross307×Trop2, Cross308×Trop2, Cross309×Trop2, Cross310×Trop2, Cross311×Trop2, Cross312×Trop2, Cross313×Trop2, Cross314×Trop2, Cross316×Trop2, Cross317×Trop2, Cross318×Trop2, Cross323×Trop2, Cross325×Trop2, Cross326×Trop2, and control IgG1LALA (purchased from Bio-Tech), serially diluted with PBST/0.05% BSA, were added at 100 μL/well and incubated at 37° C. for 1 h. The reaction system was removed, and the plate was washed 6 times with PBST. Then, HRP (horseradish peroxidase)-labeled anti-human secondary antibody (Fab specific) (purchased from Sigma) diluted with PBST/0.05% BSA at 100 μL/well. After the plate was washed six times with PBST, TMB (tetramethylbenzidine) was added at 80 μL/well, and incubated at room temperature for 3 min. 4 M sulfuric acid was added at 80 μL/well to terminate the reaction. The absorbance was read at 450 nm using a microplate reader.

T1 sequence (Q9NZQ7 19-290 limits assumed): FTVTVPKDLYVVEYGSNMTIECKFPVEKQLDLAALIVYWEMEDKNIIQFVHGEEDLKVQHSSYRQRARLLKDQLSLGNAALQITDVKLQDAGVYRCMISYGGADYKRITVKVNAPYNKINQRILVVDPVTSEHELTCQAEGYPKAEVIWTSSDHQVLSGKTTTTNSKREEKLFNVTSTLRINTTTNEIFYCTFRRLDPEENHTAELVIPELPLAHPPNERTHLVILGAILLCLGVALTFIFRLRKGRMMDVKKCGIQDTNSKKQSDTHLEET

B1: Cross310×PDL1 (bispecific antibody, human IgG1, kappa, L234A L235A)
scFv: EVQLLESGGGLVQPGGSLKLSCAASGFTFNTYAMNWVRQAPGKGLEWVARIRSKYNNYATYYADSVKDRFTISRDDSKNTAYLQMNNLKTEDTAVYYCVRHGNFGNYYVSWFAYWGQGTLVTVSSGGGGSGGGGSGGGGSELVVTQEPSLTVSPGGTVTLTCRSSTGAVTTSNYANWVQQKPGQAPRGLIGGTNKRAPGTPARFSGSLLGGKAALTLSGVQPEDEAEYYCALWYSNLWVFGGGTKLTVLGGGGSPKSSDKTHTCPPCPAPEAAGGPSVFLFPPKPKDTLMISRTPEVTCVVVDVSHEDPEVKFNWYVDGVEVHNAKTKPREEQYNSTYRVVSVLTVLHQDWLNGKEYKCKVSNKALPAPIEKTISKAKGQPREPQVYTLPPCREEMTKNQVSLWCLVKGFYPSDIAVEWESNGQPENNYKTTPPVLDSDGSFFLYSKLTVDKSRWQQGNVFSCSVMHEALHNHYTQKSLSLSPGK
heavy: QVQLVQSGAEVKKPGASVKVSCKASGYSFTGYYMHWVRQAPGQGLEWIGRINPYNGATTYSQNFKDRATMTVDTSISTAYMELSRLRSDDTAVYYCVPTGMGYFLMDYWGQGTLVTVSSASTKGPSVFPLAPSSKSTSGGTAALGCLVKDYFPEPVTVSWNSGALTSGVHTFPAVLQSSGLYSLSSVVTVPSSSLGTQTYICNVNHKPSNTKVDKKVEPKSCDKTHTCPPCPAPEAAGGPSVFLFPPKPKDTLMISRTPEVTCVVVDVSHEDPEVKFNWYVDGVEVHNAKTKPREEQYNSTYRVVSVLTVLHQDWLNGKEYKCKVSNKALPAPIEKTISKAKGQPREPQVCTLPPSREEMTKNQVSLSCAVKGFYPSDIAVEWESNGQPENNYKTTPPVLDSDGSFFLVSKLTVDKSRWQQGNVFSCSVMHEALHNHYTQKSLSLSPGK
light: DIQLTQSPSFLSASVGDRVTITCKASQDVGSAVVWYQQKPGKAPKLLIYWASTRHTGVPSRFSGSGSGTEFTLTISSLQPEDFATYFCQQFTSYPTFGQGTKLEIKRTVAAPSVFIFPPSDEQLKSGTASVVCLLNNFYPREAKVQWKVDNALQSGNSQESVTEQDSKDSTYSLSSTLTLSKADYEKHKVYACEVTHQGLSSPVTKSFNRGEC
B1: the “EC50 (read off the curve)” value in experiment [1] is about 2 µg/mL; in experiment [2] it was about 0.7 µg/mL; with PDL1 protein [3], about 0.5 µg/mL; in experiment [4], about 0.7 µg/mL.

B2: Cross326×PDL1 (bispecific antibody, human IgG1, kappa, L234A L235A)
scFv: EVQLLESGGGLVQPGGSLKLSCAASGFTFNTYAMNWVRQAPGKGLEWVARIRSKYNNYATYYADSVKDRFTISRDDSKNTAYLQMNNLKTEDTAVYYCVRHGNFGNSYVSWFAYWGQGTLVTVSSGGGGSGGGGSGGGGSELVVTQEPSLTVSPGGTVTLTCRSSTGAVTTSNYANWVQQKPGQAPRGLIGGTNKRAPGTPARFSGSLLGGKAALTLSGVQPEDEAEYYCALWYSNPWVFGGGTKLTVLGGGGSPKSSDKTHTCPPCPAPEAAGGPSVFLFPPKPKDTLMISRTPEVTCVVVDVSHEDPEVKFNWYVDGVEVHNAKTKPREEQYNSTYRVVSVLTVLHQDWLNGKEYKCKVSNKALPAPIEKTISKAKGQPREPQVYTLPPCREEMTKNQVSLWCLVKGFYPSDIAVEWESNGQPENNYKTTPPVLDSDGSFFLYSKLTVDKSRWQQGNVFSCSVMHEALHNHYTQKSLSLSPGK
heavy: B1 heavy
light: B1 light
Regarding B2, the results for the “EC50 (read off the curve)” value (in experiment [2]; with PDL1 protein [5]; in experiment [4]) were about 0.07 µg/mL, about 0.1 µg/mL and about 0.07 µg/mL, respectively.

B3: Cross317×Trop2 (bispecific antibody)
scFv: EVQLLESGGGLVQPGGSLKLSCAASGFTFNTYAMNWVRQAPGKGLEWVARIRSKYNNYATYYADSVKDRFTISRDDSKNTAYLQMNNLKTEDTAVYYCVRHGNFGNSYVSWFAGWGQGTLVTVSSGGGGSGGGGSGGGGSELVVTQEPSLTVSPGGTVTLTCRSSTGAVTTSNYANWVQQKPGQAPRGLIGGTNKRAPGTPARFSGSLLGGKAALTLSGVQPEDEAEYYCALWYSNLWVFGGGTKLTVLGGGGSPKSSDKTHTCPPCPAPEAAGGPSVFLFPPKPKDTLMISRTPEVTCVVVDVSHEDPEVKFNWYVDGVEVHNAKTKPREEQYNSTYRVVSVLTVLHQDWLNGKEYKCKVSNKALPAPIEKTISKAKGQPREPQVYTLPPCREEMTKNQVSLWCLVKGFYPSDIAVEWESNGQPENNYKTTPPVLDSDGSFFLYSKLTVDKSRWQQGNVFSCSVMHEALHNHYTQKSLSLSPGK
heavy: QVQLQQSGSELKKPGASVKVSCKASGYTFTNYGMNWVKQAPGQGLKWMGWINTYTGEPTYTDDFKGRFAFSLDTSVSTAYLQISSLKADDTAVYFCARGGFGSSYWYFDVWGQGSLVTVSSASTKGPSVFPLAPSSKSTSGGTAALGCLVKDYFPEPVTVSWNSGALTSGVHTFPAVLQSSGLYSLSSVVTVPSSSLGTQTYICNVNHKPSNTKVDKKVEPKSSDKTHTCPPCPAPEAAGGPSVFLFPPKPKDTLMISRTPEVTCVVVDVSHEDPEVKFNWYVDGVEVHNAKTKPREEQYNSTYRVVSVLTVLHQDWLNGKEYKCKVSNKALPAPIEKTISKAKGQPREPQVCTLPPSREEMTKNQVSLSCAVKGFYPSDIAVEWESNGQPENNYKTTPPVLDSDGSFFLVSKLTVDKSRWQQGNVFSCSVMHEALHNHYTQKSLSLSPGK
light: DIQLTQSPSSLSASVGDRVSITCKASQDVSIAVAWYQQKPGKAPKLLIYSASYRYTGVPDRFSGSGSGTDFTLTISSLQPEDFAVYYCQQHYITPLTFGAGTKVEIKRTVAAPSVFIFPPSDEQLKSGTASVVCLLNNFYPREAKVQWKVDNALQSGNSQESVTEQDSKDSTYSLSSTLTLSKADYEKHKVYACEVTHQGLSSPVTKSFNRGEC
For B3, the “EC50 (read off the curve)” value with CD3E&D protein is about 1 µg/mL; in experiment [6], about 1 µg/mL; with Trop2 protein, about 0.008 µg/mL.
